Sequences and labels used below:
B1: LINE1-full (parent)
chain: UACGUAGGUGGUUUUCCCCUGAUAGUGCUAAGGGGGCCUGGAAGUUUGGACUGGGCAGAGCUCAACACAGCGUGGCAAAGUGGCUGUGGCUAGACUGCCUCUCUGGAUUCCUCGUCACUCAGCAGGGCAUCUCUGAGAGAAAUGCC

Variants of B1 are the subject of the data set. In words: self-cleavage, relative activity (ratio to wild type); higher = more cleavage; in vitro, sequencing; the parent is a self-cleaving ribozyme.
On to A2G U73C, for which the self-cleavage turned out to be 0.81.

Regarding A2G U52A, the self-cleavage is 1.11.

Turning to C3A A138G, the self-cleavage came out at 0.92.

Take U1C A59G: the self-cleavage amounted to 0.1.

As to U1C A59U, the self-cleavage is 0.56.

For C3U A142G, the self-cleavage was 0.47.

With U1C C146U, the self-cleavage came to 1.08.

Take C3U U87A: the self-cleavage stood at 0.18.

On to C3U U87C, for which the self-cleavage is 0.12.

For the variant U1C U87A, the self-cleavage worked out at 0.23.

U1C U52C: the self-cleavage was determined as 1.38.

U1C U52G: the self-cleavage amounted to 1.33.

On to A2U U104A, for which the self-cleavage was found to be 0.26.

As to U1C U143A, the self-cleavage was found to be 1.35.

As to C3U U119G, the self-cleavage amounted to 0.98.

Consider C3U U119A, for which the self-cleavage amounted to 0.83.

Regarding C3U U96C, the self-cleavage is 0.

As to A2G U45A, the self-cleavage is 0.63.

For U1G U96C, the self-cleavage came out at 0.87.

U1G U46G: the self-cleavage stood at 0.33.

Regarding U1C U12A, the self-cleavage worked out at 0.95.

As for U1C U85C, the self-cleavage worked out at 0.2.

Consider U1C U132C, for which the self-cleavage was found to be 0.97.

In the case of G4A C17A, the self-cleavage amounted to 0.92.

Regarding A2G G93A, the self-cleavage was found to be 0.1.

For A2G U119A, the self-cleavage turned out to be 0.96.

For the variant A2G U119C, the self-cleavage amounted to 1.32.

Regarding A2U C56A, the self-cleavage is 0.03.

In the case of A2G U85A, the self-cleavage was determined as 0.25.

Regarding A2U U143A, the self-cleavage stood at 1.

Take A2C A138G: the self-cleavage is 2.07.

Turning to A2U U9C, the self-cleavage came out at 0.7.

As to A2U U9A, the self-cleavage stood at 0.86.

Consider A2U U46C, for which the self-cleavage worked out at 1.76.

For U1C G7U, the self-cleavage was determined as 0.75.

Consider A2G C84A, for which the self-cleavage is 0.26.

As to A2U U15G, the self-cleavage stood at 0.51.

Take C3G U81C: the self-cleavage was 0.75.

In the case of A2G G55U, the self-cleavage came to 0.49.

With A2G G55A, the self-cleavage was 0.2.

A2G A136G: the self-cleavage was 0.82.

In the case of C3U G72A, the self-cleavage is 0.05.

Consider U1C G4A, for which the self-cleavage is 0.46.

Regarding A2U U47A, the self-cleavage was found to be 0.85.

As to U1C A31U, the self-cleavage is 0.61.

Turning to A2U U12A, the self-cleavage worked out at 0.31.

Turning to C3A G127A, the self-cleavage was 0.43.

On to U1C A117U, for which the self-cleavage amounted to 0.89.

As to U1C A117G, the self-cleavage worked out at 0.73.

As for C3A U115C, the self-cleavage was 1.22.

With A2C U62C, the self-cleavage stood at 0.11.

In the case of C3A U13C, the self-cleavage was 1.15.

With C3U A77U, the self-cleavage was 0.

Regarding C3U A77G, the self-cleavage was 0.71.

Turning to C3G A79G, the self-cleavage amounted to 1.04.

Take C3A A31G: the self-cleavage was found to be 0.87.

Consider U1C U45G, for which the self-cleavage was determined as 0.48.

For U1C U45C, the self-cleavage was 0.91.

U1C G139U: the self-cleavage amounted to 0.74.

Turning to A2G A92C, the self-cleavage turned out to be 0.13.

As to A2G A92G, the self-cleavage came to 0.

With A2G U15G, the self-cleavage came to 0.99.

Consider A2U U23C, for which the self-cleavage is 0.

Consider G4A U9C, for which the self-cleavage came out at 0.69.

Take A2U U73C: the self-cleavage was determined as 0.56.

Regarding A2U U73A, the self-cleavage is 0.45.

Turning to A2G A57G, the self-cleavage was 0.68.

As to A2U U115A, the self-cleavage stood at 0.77.

Turning to C3A U12G, the self-cleavage is 0.81.

Turning to U1C A43C, the self-cleavage was determined as 0.37.

With U1C A43U, the self-cleavage came to 0.75.

On to U1C A43G, for which the self-cleavage was 0.79.

For the variant G4A A121G, the self-cleavage turned out to be 1.78.

In the case of U1C U96A, the self-cleavage amounted to 0.09.

U1C U96C: the self-cleavage came out at 0.12.

On to C3U C123U, for which the self-cleavage was 0.63.

A2G U29C: the self-cleavage came out at 0.81.

Take C3U U20A: the self-cleavage is 0.83.

As to C3U U20G, the self-cleavage is 0.53.

On to U1C U15A, for which the self-cleavage worked out at 0.81.

For the variant U1C U14G, the self-cleavage came to 0.36.

C3U A124U: the self-cleavage amounted to 1.

C3A U85A: the self-cleavage is 0.13.

On to C3U G127A, for which the self-cleavage is 0.89.

Take A2U U87A: the self-cleavage turned out to be 0.08.

On to G4A A59G, for which the self-cleavage stood at 0.12.

On to G4A G75A, for which the self-cleavage was 0.87.

Consider A2U A43G, for which the self-cleavage is 1.07.

Take A2G U87A: the self-cleavage was 0.32.

In the case of C3A G72A, the self-cleavage amounted to 0.38.

Take A2G G36A: the self-cleavage worked out at 0.7.

For U1G U12C, the self-cleavage was 0.64.

As to U1G U13G, the self-cleavage came out at 1.14.

On to C3U U62G, for which the self-cleavage was 0.07.

For the variant C3U U62A, the self-cleavage stood at 0.2.

Consider U1C U81A, for which the self-cleavage amounted to 1.64.

For the variant C3U U132C, the self-cleavage was found to be 1.1.

Regarding A2G U102C, the self-cleavage is 1.2.

As for A2U U130C, the self-cleavage was found to be 0.32.

Turning to A2G C71U, the self-cleavage came out at 0.7.

On to U1C C76U, for which the self-cleavage turned out to be 1.56.

Take C3A A67G: the self-cleavage was found to be 0.56.

With U1C A79U, the self-cleavage was determined as 2.16.

Regarding U1C U130C, the self-cleavage is 1.04.

For the variant G4A U12C, the self-cleavage is 0.77.

Consider A2G U96G, for which the self-cleavage was determined as 0.12.

Take A2G U96C: the self-cleavage came to 0.22.

C3U U39C: the self-cleavage was found to be 0.79.

As for U1A U132A, the self-cleavage is 1.35.

Regarding A2U U81A, the self-cleavage was 1.38.

For G4A U20C, the self-cleavage was found to be 1.2.

Consider A2G A94C, for which the self-cleavage came to 0.29.

As for A2U A79G, the self-cleavage was found to be 1.45.

In the case of G4A G125A, the self-cleavage stood at 0.86.

Turning to A2G U81C, the self-cleavage came to 1.14.

A2U U52C: the self-cleavage came to 0.67.

Turning to A2G U130C, the self-cleavage was determined as 0.56.

As for U1G A78G, the self-cleavage amounted to 1.25.

In the case of A2G U109C, the self-cleavage was found to be 1.39.

In the case of G4A G127A, the self-cleavage stood at 1.67.

Regarding U1C U119C, the self-cleavage turned out to be 0.78.

For the variant A2U U85G, the self-cleavage is 0.14.

Turning to C3U C131U, the self-cleavage worked out at 1.02.

For U1C U23A, the self-cleavage amounted to 0.56.

For U1C U23C, the self-cleavage came to 0.98.

As to C3U A129G, the self-cleavage was 1.62.

As to C3A A94G, the self-cleavage came out at 0.3.

Turning to A2G C118G, the self-cleavage was 1.04.

Take A2G U12G: the self-cleavage was found to be 0.95.

For A2C U39A, the self-cleavage turned out to be 1.3.

Consider C3U U104C, for which the self-cleavage is 1.53.

With A2G C37U, the self-cleavage turned out to be 0.89.

U1C A24U: the self-cleavage worked out at 1.2.

On to C3U U102A, for which the self-cleavage is 1.1.

For U1C U9A, the self-cleavage worked out at 0.75.

Consider U1C C51U, for which the self-cleavage turned out to be 0.71.

As to A2C A31G, the self-cleavage was 1.34.

With A2G U134A, the self-cleavage is 1.38.

Regarding U1A U119C, the self-cleavage was found to be 1.73.

As for G4A A42U, the self-cleavage amounted to 0.78.

Take U1C A78C: the self-cleavage worked out at 1.46.

As for U1C A78G, the self-cleavage was 1.38.

In the case of U1C C90A, the self-cleavage is 0.

In the case of A2G G137A, the self-cleavage is 0.61.

For the variant C3A A30G, the self-cleavage is 1.39.

For the variant C3U G82U, the self-cleavage came to 0.88.

Regarding C3U A31U, the self-cleavage came to 0.37.

As for A2G C38A, the self-cleavage came to 1.05.

For U1G U100C, the self-cleavage was 1.1.

Consider G4A G70U, for which the self-cleavage was found to be 0.11.

On to U1C A136G, for which the self-cleavage was 1.08.

On to A2G A69G, for which the self-cleavage worked out at 0.32.

As for A2G A69U, the self-cleavage worked out at 0.15.

A2G U104A: the self-cleavage is 0.95.

Take A2G G21C: the self-cleavage was determined as 1.04.

For A2G U47C, the self-cleavage turned out to be 0.84.

As to U1C U13C, the self-cleavage was 0.62.

As for U1C U13A, the self-cleavage was found to be 0.69.

Regarding C3G A31U, the self-cleavage came to 0.98.

Take U1C C17U: the self-cleavage worked out at 0.87.

Regarding A2U A129U, the self-cleavage came to 0.75.

With U1C G106A, the self-cleavage worked out at 0.73.

For the variant U1C G144A, the self-cleavage came to 0.72.

Consider U1C U46A, for which the self-cleavage is 0.43.

U1C U46C: the self-cleavage was found to be 1.11.

As to A2G U9A, the self-cleavage amounted to 0.56.

In the case of A2G A141G, the self-cleavage worked out at 0.78.

The values are drawn from the RNAGym collection of RNA variant scans (doi:10.7554/elife.90254).
